Assay results as given in the DeepSol protein solubility set.

assay: soluble on expression in E. coli; label from the status in PepcDB or PDB records

Soluble on expression in E. coli, not soluble:
MGSDKIHHHHHHMPNVNLDALIPREDFEVIENNSRASSFNQNVSVKDLEKGEFFYAGLRKPDFQRETSDWTDEQLCEFIQSFIDGDLIPAVILWNSGPYNFVIDGAHRLGALISWINDDYGDGHISQKFFNNEIDDEQKDIANKTRERIKNTVKPYSDYKKVILDSSDCDRGILEKALSLGRTSIQLQWVTGGAEKAELSFFKINQKASKINDTEIELLKSRRKAFAIASRAIIRAGTGHQYWSKFDNDVMQNIETMAKEIHSLIFLPKVSGAVRTLDLPLVKKHNSPQTNSFIFDLVKKCNNVPVNTIKIDDDDNGKLTVEYLKNVRKFLRRINSSHPSSLGLHPLVYFYNKRGNHIYSAILAWVDTIVTIEKTKVSLSSFLFIRSDLEKFLIKYKHFISGVNAKYGSGVKSYKHILKINSIIINQLQKRESEKYIVDSILNEYGFLSESDDVNVTSARFSTDIKSQIYIQETLPKTSTCSHCHGFIHQNSISFDHIVRKQDGGKGNVGNGALMHPYCNTSEKN, MGSDKIHHHHHHMPRNLPPLYALRAFEAAARHTSFTRAAEELSITQSAVSRHIRTLEEHFACRLFQRNGRNLQLTESARTLLPGVRDGFLALERACSTLQTDEGVLRMKAPSTLTMRWLLARLSRFRHLQVGNEVQLTSAWMDIDAVDFTREPFDCAILLSQGHFPSDWEATLLFAELLIPVGAPTLSQDPPWDVERLAKAELLHPTPDRRDWRTWLNRMGLADQVSLKGGQVFDTLELGMIAAARGYGVSMGDLLMVAEDLAQSRLSLPWRTAVFSGENYYLVWPRTRPGAERLRRLSDFLQAEVKAMKLPLVEVLR, MGSDKIHHHHHHMPSDASRRLYERLGIPLLPMDSPFGPEYPIGNKFAALALGPAVGHTLFLDSDMICVDAFEADMLCRFDAALKPADMALVAKQNDYWERIYAHAGSALPGDRVVTTCSGEAMPAYYNAGFILVRDARRFAEVWYRLAERVHADPLITNKMPWLDQLTLPVALHALNYKTRALSERFNYPLHIKPLSAASLPPFFCHYHSLDTLVSERSLWAELDELAKRFPELREVLALDANWKKAILAPAPRLAFSEGDSTGTVEAGQDLVITGIPRSGTSHLCRLLSQQPDTVVLNEPPQVFEALKLSPLPWGLPRYYAELRRDILAGRPVPNKHVNGRLVDDTARGNDQSSDYFAEVRGASFHLGTKNTLAYIARLPLIRKVMPTALLIATIRHPYDTLNSWANTFEHLRQAAVERQPFGCPDDLALTGWQRKALLAIADTDHLAVRRALWWRYLALQLEDAGDYVQLLRYEDFVEAPQTTLAALRNNRPLPFDEPAVWSKGLAPDEQELVANIVCDVAERFHYVL, MGSDKIHHHHHHMPTMIPAASRAMAVFEVFAREKRELSNSDMARLLSLPESSTSDLLHTLHSLGYLMRTTRTRRFYPTGRLSEIARQIAENDPLTTVAQEAIEQVSARTNESVFFGVLDGTAVKVMAVQASRLPLRYIIEVGYRAALHASALGKGLLGLLPPEEARETLAKSSLRAVTAHTVVDIDTLMAQVAKGRKRGWYEAHEEGSEGVHGLAVTGWLGGQAAGISLAGPAERMKKNHDAYLAALIEVRDALMSEE, MGSDKIHHHHHHMPTVERHIRGKWACDSCETLIQAPVPPQVIDKGIPTAGLLAQVLVAKYADHLPLYRQERMFGRAGLEIPRSTLAEWVGACGVQLQPLVDALRNTLLEHSVLHADETPVSMLAPGKKKTHKAYVWAYCTTPFADLKAAIYDFAPSRAGEHARTFLGDWRGKLVCDDYAGYKAGFGNGITEIGCMAHARRKFYDLHEANKSELAAKALEYIGGLYEIERETKDLPPDMRREIRQTKAKPLADALHQWMLAHRQKVPDGSGTAKALDYSLKRWEALTRYLDDGAVPIDNNWVENQIRPWALGRSNWLFAGSLRSGQRAAAVMTLIQSAKLNRHDPYAYLKDVLTRLPTQKNNAIDELLPHNWKPAIPNKV, MGSDKIHHHHHHMPYKTLKTIDYEAHHDSKTVGTEYERRIHNYGIFKSGLYPFLIDHQELSQDRRELFITPLREIAIACERIEYNSAELKSKLKELPPIAEELYLKKSLINEITTSNRLSGIAVRRTEVKAALDSINKDNQEQVRFAPMAKMYNKILEDDFQRIESFVDLRKVYNQLLFGLIEKEQMPDGAFFRNRPVSIKNDQQKIIFQLPGNENDLEQRLSNWLKFISNKNIPFMIKGLLAHGYFENIHPFYDGNGRTSRYILSLYLARKLDLVTGLNVAQAIYENRESYEKALLALGDQGNFAEGSFFINDSLSMIENRQRKIIEDLDVNIKQLSRTNKKIQQIYQINSPEYFVLNLLLQSKIFTDNQADGLLDREIVEISENSKHSKRAINLAIKSLEQKKQITTLKKNPFQHSIDIN, MGSDKIHHHHHHMQDCDVRIFYIFKSLYDSGSATFVSQQHSVSPSKVSRYIAEMREVYNDSLFIRRKTHFVPTKKAREIYPKICEIIELIEGLSANRHELEVKKECVIAVPATLCVGLPEHLNRVIKQEGLDISLKVMSSHREICTKVINGEICIAITNRACTQTMDCNPKHSNLLHVEPISVGEHVYVVSAATGAIWQEKISLDNIAKYPFVVTQVSGFNDEKDPFEVYCEQRGLALNVFLKTQNLASMIEALMSENTISFIGPNSAAAFIAKVPSLRVEKLENCEYQRLHEAMHKPTYSMIYLKRNIDVIPPLIKSEVLRFISDSVCDF, MGSDKIHHHHHHMQDLLSQDEIDALLHGVDDGDIDTYEETDDTGVKNYDLASQDRIVRGRMPTLEMINERFARYTRISLFNLLRRNADVSTGGVQIMKFGEYIHTLYVPTSLNLCKVRPLRGTSLFVLDAKLVFKLVDNFFGGEGRHAKIEGREFTPTETRIVQMVLNQVFHDMKEAWHAVLQVEFEYLSSEVNPAMANIVSPSEVVVVSTFHIELDGGGGELHFALPYSMIEPIRDVLDAGVQSDIDDVDERWVNALQEDIKEVNVPINTTVCRRRISLRDIARMKAGDVIPVEIPEHLTVTANGIPIYKATLGTRDGKLALRIHDRAKLPKVKKQLKVGRNG, MGSDKIHHHHHHMQDLNDLSLFAQVVEHGSFSAASRATGIPKSRLSRRIAQLERDLGVQLLRRTTRQVRVTPLGESYYERCRAMLKEAEAAHEVIEQARDQPGGTLRVSCPVAIAQILLAPAIGHFMRANPAVRIELEATNRRVDVIGEGYDLSLRVRDVLEDSSLAVRTFGESQLMLVASPGLLDSIGRPRTPQALDGMPGVGQKPHDGKHVWVLGCKSGETIQIAYDPRLVTDEFSLLREAAIAGIGVAMLPRMYCRDAIDAGELELLLPQWEMPVGTLHAVFPSRKGVTPAVRRFLDFLSEILPENARKVGMHEPRQPAMHRAV, MGSDKIHHHHHHMQEIVDQLAATIRAAAASNVPLRIRSGGTKDFYGQQDKGRDVAPEGILDPTAFAGIVDYEPTELVVTARTGTPLAQLETELNGRGQMLAFEPPHFGAGATLGGCIAAGLSGPRRASAGAVRDFVLGVRMLDGRGDDLSFGGRVMKNVAGYDIPRLMAGSLGTLGLLLEVSLKVLPLPAEERTLRLSMNEAVAIETMNRWAGKPLPVSATCFCEGELTVRLSGATSAVRAARAVLGGEEIVENSSFWKSIREQVHPFFRSGKQLWRLSIKSTTAPLSLPGKQLIEWGGAVRWLSVDAEMDNDAVETLVRKTAKEAGGHATLFRSRTPAAAVFHPLPPAMMNIHRQLKEKFDPMRIFNRGRLYPEL, MGSDKIHHHHHHMQEQINLSEWRERARSFEQSANKVVLGLERQVRALTIAIFSRGHVLLEGDVGVGKTTLLKAASRLLGGAYQRIEGAIDLMPGDFLYHAYIDQNGQPAVAPGPLLRHEENLAVFFFNEINRARPQAHSLLLRLMAERSVNAFNRDYAFPHLTVFADRNGLEREETFELPAAARDRFFMEVSVTAPEDKELQRDLMFSTRFHDADALIETLEPGLVPYDKLNAVSAAIQESVRSELALQDYAVNIWQALRHPERIGIEIEDVDISRLVAGGASPRGMAMLMRAARTRAWLEGRDYLTPDDIRAVFPETVGHRVFFTPAYELRRDEIAPALLSGVLNKIPAP, MGSDKIHHHHHHMQFDNLLSRADDGTLQVLLGNAAVRLIKLLDPSLVTPSRLREILMELHTPASLLLTKDSRAMLLDLLRPEQAKILATIMQVPLTGDIFETLKKTSIRHGSNRERALFDFFELELPQPEDSVQSSSLELAVSNYPLFAHQRIAARKVKNYFKQEPRRVLLHMPTGSGKTRTAMNIIADHLRSVEPTIVVWLAYSEELCEQAATEFQKAWQCLGDRQVSLYRFWGEHEIDVDKLEDGIVVAGLSKVYNRTKQSIQFINRLGKVSSLVIIDEAHQAIAETYKLVLDALVVPYENTALLGLTATPGRTWSDINVDTELSEFFAKNKVTLEVSGYSNPVDYLISEEYLAKPNFRSLFYKNGLKLTQKDLERIQQELEIPQHILEQLADDEQRNLSIIIEVEELAKRHQRILIFGISIKHSKLLATVLRARGLQANVVTGDTPLLERTRLINSFKDDSDETKIICNYGVLTTGFDAPRTSAAVIARPTKSLVLYSQMVGRAIRGVKAGGNVTAEIVTVVDSALRGFGSLEEAFSNWEDVWHKEKI, MGSDKIHHHHHHMQFDPPLQPAILLKRYKRFLADVVTPDGRELTLHCPNTGAMTGCAAPGDTVWYSTSDNAKRKYAHTWELTETQQGAVICVNTLRANSLAKEAISAGIIPELSGYNQLKSEVKYGEENSRIDIMLQADDRQNCYIEVKSVTLAEKEYGYFPDAVTTRGQKHLRELMAVAANGDRAVILFAVLHSAIDRFSPAHHIDARYAQLLTEAQDKGVEILAWKAELSTTRMTLNKPIAVVLNPGK, MGSDKIHHHHHHMQGSAMLVHPQYDSNCPKTSVEVSEGFGGWFARICEDDQETFHQFRRERDAIAFADTQRMRLGLPCPPLERTASSGHKAIRKINQIADVLRTRGLGRFLQLSTLSLSEPIRSQRLRYRVASDARQALSKIKAASRHRGLFIDCGSNIGQAYKFFSRYYTPDYYDYVLVEPNKNCLEHLHSLRSENVAIEVVAKAASVKDGYAEFLGPPGRSDLTYEGCSIVPSHNGGLYPSQRFTPELVETFSLSQMIQAKRGLYEVIVLKLDVEGAEYEILDDLIRSGLHRDLHATYVEFHSLYMRNSEGRKTAVVERKIVDEFQQAGTHISRWI, MGSDKIHHHHHHMQLKRMGYAQTKIRQGPNHRDGEQVTFLDVKQFFGLGHVRVGSWVSSEESLIAANMVFDALADLALVLGLPPKVMGLRERLNLAFGHGGQQGVMAHYSPSERTLALAKHAGAGAVAHEFWHAFDHHLSDTAMDIGRSQKARFASELWLNDVPLLCHPLNDRLEALFQSVLLSGDGEHPSDYVRRAIQLDKTYGRLYFSHPSELMARAFEAAIESEGDFEQVDTDSGEIHLLPLINPYLVTGTLEDIKTENKGELLPKFGSWGAMPQGAFPTPIHRQAIMKAMAGYFRPLGRALAKTLS, MGSDKIHHHHHHMQLPNLQSATLLRRYKRFLADVELNNGEILTLHCANTGAMTGCGEKGDTVWFSTSDSKTRKYPHSWELTQLKNGQTVCINTHRSNQLTLEALQNKIITELAEYDEILPEVKYGVENSRIDFLLKGKNLPDCYVEVKSVTFVKNHLGLFPDAVTTRGQKHLRELIAMKKRGHRAVVFFAGLHDGFNRFTVAKSIDPDYAELLQQAVKEGVEVYSYAVKFDFSHQKPTALYLTNLVNYLE, MGSDKIHHHHHHMQLYYAPNTISVAVAIALEEAGLAYEAVKIDFAEKQQTTRAYHQINPKGRVPALAVEGGILTETGALLEFIADLAPDADLRPSDPVLQARMREVMFYLASTMHVNHAHKMRGSRWASNPASFKDMARKVPETMAASCEYICNHGLRGPFVLGDTPCLADFYLYVVCTWLEGDGVKLAGFPKLRAFIEAMDARDSVKTVRAKDML
